This assay deals with polymerized nonmuscle actin (F-actin) (UniProt P60709). The assay is described as follows: co-sedimentation.

By Kd is commonly meant the equilibrium constant for the complex coming apart. Read a low Kd as tighter binding.

For the substance “GST-connecdenn 3 789–801 wild type (from UniProt Q8IV53 789-801) (peptide)”, the dissociation constant Kd came out at 10.7 µM.

Source of the values: article PMC3248895.
